Assay results as given in paper PMC6925387 (Life Science Alliance, 2019).

T1: Nipah virus attachment glycoprotein (NiV-G), HA-tagged, expressed on the cell surface (Nipah virus, UniProt Q9IH62 1-602)
T1 construct: also called HNV-G; G of NiVpp
T1 sequence: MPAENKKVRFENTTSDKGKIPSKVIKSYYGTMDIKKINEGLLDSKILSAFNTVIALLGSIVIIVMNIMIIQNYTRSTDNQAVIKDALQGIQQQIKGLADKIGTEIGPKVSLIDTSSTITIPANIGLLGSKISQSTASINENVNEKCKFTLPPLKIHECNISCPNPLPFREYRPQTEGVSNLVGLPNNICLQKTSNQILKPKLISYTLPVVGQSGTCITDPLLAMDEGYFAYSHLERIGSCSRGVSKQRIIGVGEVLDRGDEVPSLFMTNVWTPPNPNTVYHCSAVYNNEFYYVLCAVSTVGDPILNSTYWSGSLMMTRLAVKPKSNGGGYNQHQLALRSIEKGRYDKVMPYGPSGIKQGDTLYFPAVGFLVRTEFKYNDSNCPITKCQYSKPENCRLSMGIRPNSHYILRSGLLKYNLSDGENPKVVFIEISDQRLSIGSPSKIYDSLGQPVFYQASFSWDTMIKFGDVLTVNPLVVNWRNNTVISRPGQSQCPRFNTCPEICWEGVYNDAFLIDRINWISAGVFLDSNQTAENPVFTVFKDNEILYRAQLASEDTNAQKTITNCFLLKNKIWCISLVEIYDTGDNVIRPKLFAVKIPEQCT

T2: Hendra virus attachment glycoprotein (HeV-G), HA-tagged, expressed on the cell surface (Hendra virus, UniProt O89343 1-604)
T2 construct: also called HNV-G; G of HeVpp; not shown: HA, C-terminal, kept
T2 sequence: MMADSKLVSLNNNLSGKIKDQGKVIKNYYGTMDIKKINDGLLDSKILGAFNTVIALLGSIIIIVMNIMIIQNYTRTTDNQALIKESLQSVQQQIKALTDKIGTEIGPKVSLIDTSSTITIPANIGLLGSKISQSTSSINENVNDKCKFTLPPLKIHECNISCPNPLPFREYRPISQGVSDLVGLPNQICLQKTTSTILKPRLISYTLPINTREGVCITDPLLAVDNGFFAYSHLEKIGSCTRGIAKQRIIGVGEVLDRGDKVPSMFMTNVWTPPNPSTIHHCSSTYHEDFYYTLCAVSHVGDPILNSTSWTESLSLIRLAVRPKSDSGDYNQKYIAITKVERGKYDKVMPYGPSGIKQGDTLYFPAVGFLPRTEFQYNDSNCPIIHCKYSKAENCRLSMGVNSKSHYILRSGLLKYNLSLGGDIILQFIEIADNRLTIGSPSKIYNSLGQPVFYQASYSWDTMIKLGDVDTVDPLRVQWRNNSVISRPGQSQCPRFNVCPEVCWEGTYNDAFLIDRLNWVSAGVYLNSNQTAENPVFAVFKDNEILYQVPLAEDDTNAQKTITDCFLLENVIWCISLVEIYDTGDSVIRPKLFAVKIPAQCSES

T3: Ghana virus attachment glycoprotein (GhV-G), HA-tagged, expressed on the cell surface (Ghana virus, UniProt I0E093 1-632)
T3 construct: also called Ghanaian bat henipavirus G; HNV-G; not shown: HA, C-terminal, kept
T3 sequence: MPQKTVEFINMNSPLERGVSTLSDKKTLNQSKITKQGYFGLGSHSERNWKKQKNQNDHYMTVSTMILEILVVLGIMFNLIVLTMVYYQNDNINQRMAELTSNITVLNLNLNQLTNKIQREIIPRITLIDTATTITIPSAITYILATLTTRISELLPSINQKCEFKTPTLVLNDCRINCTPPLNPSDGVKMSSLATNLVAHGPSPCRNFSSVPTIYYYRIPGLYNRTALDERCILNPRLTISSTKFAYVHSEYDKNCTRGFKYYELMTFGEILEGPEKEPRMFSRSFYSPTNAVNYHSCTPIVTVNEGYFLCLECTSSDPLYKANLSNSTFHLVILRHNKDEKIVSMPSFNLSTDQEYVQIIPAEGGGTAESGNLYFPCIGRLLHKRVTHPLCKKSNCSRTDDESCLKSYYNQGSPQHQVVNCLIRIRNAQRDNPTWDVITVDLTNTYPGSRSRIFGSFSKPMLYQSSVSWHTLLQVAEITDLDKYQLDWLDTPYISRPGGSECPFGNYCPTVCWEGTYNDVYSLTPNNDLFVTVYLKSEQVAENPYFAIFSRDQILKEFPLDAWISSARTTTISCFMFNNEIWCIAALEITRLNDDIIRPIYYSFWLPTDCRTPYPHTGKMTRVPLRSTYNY

T4: CedV-G receptor-binding six-bladed β-propeller domain (residues 209–622) (Cedar virus, UniProt J7H333 209-622, high-mannose N-linked glycans (expression in the presence of kifunensine))
T4 sequence: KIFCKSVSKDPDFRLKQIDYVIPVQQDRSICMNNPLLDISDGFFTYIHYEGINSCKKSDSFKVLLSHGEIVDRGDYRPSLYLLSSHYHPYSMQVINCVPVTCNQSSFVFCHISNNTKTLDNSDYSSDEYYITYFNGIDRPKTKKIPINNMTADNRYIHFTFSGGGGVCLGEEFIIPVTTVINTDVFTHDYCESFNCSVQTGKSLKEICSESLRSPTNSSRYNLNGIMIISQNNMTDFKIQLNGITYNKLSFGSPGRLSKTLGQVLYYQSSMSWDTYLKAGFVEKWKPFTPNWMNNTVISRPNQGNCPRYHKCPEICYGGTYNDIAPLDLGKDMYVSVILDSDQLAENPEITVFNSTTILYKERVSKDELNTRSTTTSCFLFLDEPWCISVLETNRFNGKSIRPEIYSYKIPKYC

B1: Soluble human ephrin-B2–Fc (Fc fusion)
chain: IVLEPIYWNSSNSKFLPGQGLVLYPQIGDKLDIICPKVDSKTVGQYEYYKVYMVDKDQADRCTIKKENTPLLNCAKPDQDIKFTIKFQEFSPNLWGLEFQKNKDYYIISTSNGSLEGLDNQEGGVCQTRAMKILMKVGQDASSAGSTRNKDPTRRPELEAGTNGRSSTTSPFVKPNPGSSTDGNSAGHSGNNILGSEVALFA
notes: also called sEphrin-B2–Fc; ephrin-B–Fc; source: bought: R&D Systems
B2: Human ephrin-B1 N-terminal extracellular domain (residues 29–167) (domain or fragment)
chain: AKNLEPVSWSSLNPKFLSGKGLVIYPKIGDKLDIICPRAEAGRPYEYYKLYLVRPEQAAACSTVLDPNVLVTCNRPEQEIRFTIKFQEFSPNYMGLEFKKHHDYYITSTSNGSLEGLENREGGVCRTRTMKIIMKVGQD
modifications: high-mannose N-linked glycans (expression in the presence of kifunensine)
notes: also called extracellular β-barrel domain of human ephrin-B1; ephrin-B1 ectodomain
B3: Soluble human ephrin-B3–Fc (Fc fusion)
chain: LSLEPVYWNSANKRFQAEGGYVLYPQIGDRLDLLCPRARPPGPHSSPNYEFYKLYLVGGAQGRRCEAPPAPNLLLTCDRPDLDLRFTIKFQEYSPNLWGHEFRSHHDYYIIATSDGTREGLESLQGGVCLTRGMKVLLRVGQSPRGGAVPRKPVSEMPMERDRGAAHSLEPGKENLPGDPTSNATSRGAEGPLPPPSMP
notes: also called sEphrin-B3–Fc; ephrin-B–Fc; source: bought: R&D Systems

Legend:
[1] = target: Cedar virus attachment glycoprotein (CedV-G), HA-tagged, expressed on the cell surface (Cedar virus); experiment: flow cytometry on cells
[2] = target: T1, Nipah virus attachment glycoprotein …; experiment: flow cytometry on cells; conditions: one partner purified
[3] = target: T2, Hendra virus attachment glycoprotein …; experiment: flow cytometry on cells; conditions: one partner purified
[4] = target: T3, Ghana virus attachment glycoprotein …; experiment: flow cytometry on cells; conditions: one partner purified
[5] = target: T4, CedV-G receptor-binding six-bladed …; experiment: crystal structure; conditions: both partners purified

Molecule | Kd [1] [nM] | Kd [2] [nM] | Kd [3] [nM] | also measured
Soluble human ephrin-B1–Fc (from UniProt P98172) (Fc fusion) | 4 | – | – | –
Soluble human ephrin-B2–Fc (from UniProt P52799) (Fc fusion) | 2.3 | – | – | –
B1 | – | 1.4 | 0.86 | Kd [4]: 0.82 nM
B2 | – | – | – | stoichiometry N [5]: 1
B3 | – | 2 | 5.3 | –
